From patent US20230312646A1 (published 2023) come the findings set out here.

For assay [1], the target named is P47 (P32 with proline replaced by octahydroindole-2-carboxylic acid, Oic). The experiment in a line: ITC, 25 C. On the technique in general: Isothermal titration calorimetry measures the heat released or taken up as one component is titrated into another.
Assay [2] deals with P50 (hexapeptide with Oic and a C-terminal 3,4-dichlorinated phenylalanine). The experiment in a line: ITC, 25 C.

B1: Pseudomonas aeruginosa sliding clamp (other)
chain: MHFTIQREALLKPLQLVAGVVERRQTLPVLSNVLLVVEGQQLSLTGTDLEVELVGRVVLEDAAEPGEITVPARKLMDICKSLPNDVLIDIRVEEQKLLVKAGRSRFTLSTLPANDFPTVEEGPGSLNFSIAQSKLRRLIDRTSFAMAQQDVRYYLNGMLLEVNGGTLRSVATDGHRLAMCSLDAQIPSQDRHQVIVPRKGILELARLLTEQDGEVGIVLGQHHIRATTGEFTFTSKLVDGKFPDYERVLPRGGDKLVVGDRQQLREAFSRTAILSNEKYRGIRLQLSNGLLKIQANNPEQEEAEEEVQVEYNGGNLEIGFNVSYLLDVLGVIGTEQVRFILSDSNSSALVHEADNDDSAYVVMPMRL
notes: also called ^PaSC; P. aeruginosa
The Kd is a measure of binding affinity in units of concentration. Higher therefore signals lower affinity. B1: the figures for the Kd in assay [1] and in assay [2] were 201 nM and 20 nM, respectively.
